Our source for the percent of the protein population that is dimeric, stoichiometry N and percent of the species in the dimer peak, with tRNA^Ala values is article PMC12021450.

The target of experiment [1] is Trypanosoma brucei MSC-associated protein 1 (MCP1), wild type, His6-tagged (Trypanosoma brucei). As to the kind of experiment: mass photometry; protein alone, 50 nM final in 50 mM HEPES-KOH pH 7.6, 50 mM NaCl, 2 mM MgCl2, 0.5 mM TCEP; pre-incubated at 2 uM at room temperature for 10 min; no tRNA; monomer to dimer.
For experiment [2] the target is unchanged. As to the kind of experiment: mass photometry; 50 nM protein with 25 nM tRNA^Ala (complex formed at 2 uM protein : 1 uM tRNA^Ala, room temperature, 10 min) in 50 mM HEPES-KOH pH 7.6, 50 mM NaCl, 2 mM MgCl2, 0.5 mM TCEP; monomer to dimer.

On to “Trypanosoma brucei MSC-associated protein 1 (MCP1), wild type, His6-tagged (natural protein)”, for which, in experiment [1], the percent of the protein population that is dimeric is 17% and the stoichiometry N (usually a count of units in the complex or per binding partner) turned out to be 2. In experiment [2], the percent of the species in the dimer peak, with tRNA^Ala was found to be 31% and the stoichiometry N is 2.
